In the Immune Epitope Database (IEDB):

Assays:
[1] = target: HLA-B*40:01; assay: IEDB peptide-MHC binding, purified MHC/direct/fluorescence; filed as Kd, often an IC50 or EC50 that approximates it; ≥ and ≤ were set here for values at or beyond the usual limits of such assays
[2] = target: HLA-A*26:01; assay: as above
[3] = target: HLA-A*24:03; assay: as above
[4] = target: HLA-B*07:02; assay: as above
[5] = target: HLA-A*30:01; assay: as above
[6] = target: HLA-A*03:01; assay: as above
[7] = target: HLA-B*27:05; assay: as above
[8] = target: HLA-B*58:01; assay: as above
[9] = target: HLA-B*44:02; assay: as above
[10] = target: HLA-B*15:01; assay: as above
[11] = target: HLA-A*02:01; assay: as above
[12] = target: HLA-B*08:01; assay: as above
[13] = target: HLA-A*69:01; assay: as above
[14] = target: HLA-A*01:01; assay: as above
[15] = target: HLA-A*11:01; assay: as above; settings: source organism: Escherichia coli
[16] = target: HLA-A*31:01; assay: as above; settings: source organism: Escherichia coli
[17] = target: HLA-A*23:01; assay: IEDB peptide-MHC binding, purified MHC/competitive/fluorescence; filed as Kd, often an IC50 or EC50 that approximates it; ≥ and ≤ were set here for values at or beyond the usual limits of such assays
[18] = target: HLA-A*02:01; assay: IEDB peptide-MHC binding, purified MHC/competitive/radioactivity; ≥ and ≤ were set here for values at or beyond the usual limits of such assays
[19] = target: HLA-B*83:01; assay: IEDB peptide-MHC binding, purified MHC/competitive/fluorescence; filed as Kd, often an IC50 or EC50 that approximates it; ≥ and ≤ were set here for values at or beyond the usual limits of such assays; settings: source organism: Escherichia coli 536
[20] = target: HLA-B*45:06; assay: as above; settings: source organism: Escherichia coli 536
[21] = target: HLA-B*35:01; assay: as above
[22] = target: HLA-B*15:42; assay: as above; settings: source organism: Escherichia coli 536
[23] = target: HLA-B*08:01; assay: as above; settings: source organism: Escherichia coli 536
[24] = target: HLA-B*51:01; assay: as above
[25] = target: HLA-B*57:01; assay: IEDB peptide-MHC binding, purified MHC/direct/fluorescence; filed as Kd, often an IC50 or EC50 that approximates it; ≥ and ≤ were set here for values at or beyond the usual limits of such assays
[26] = target: HLA-A*02:12; assay: as above; settings: source organism: Ravn virus - Ravn, Kenya, 1987
[27] = target: HLA-B*15:17; assay: as above; settings: source organism: Ravn virus - Ravn, Kenya, 1987
[28] = target: HLA-A*29:02; assay: as above; settings: source organism: Ravn virus - Ravn, Kenya, 1987
[29] = target: HLA-B*18:01; assay: as above; settings: source organism: Ravn virus - Ravn, Kenya, 1987
[30] = target: HLA-B*51:01; assay: as above
[31] = target: HLA-B*35:01; assay: as above; settings: source organism: West Nile virus
[32] = target: HLA-A*02:12; assay: IEDB peptide-MHC binding, purified MHC/competitive/fluorescence; filed as Kd, often an IC50 or EC50 that approximates it; ≥ and ≤ were set here for values at or beyond the usual limits of such assays; settings: source organism: Vibrio antiquarius
[33] = target: HLA-A*26:01; assay: as above; settings: source organism: Vibrio antiquarius
[34] = target: HLA-A*24:03; assay: as above; settings: source organism: Vibrio antiquarius
[35] = target: HLA-B*57:01; assay: as above; settings: source organism: Vibrio antiquarius
[36] = target: HLA-A*03:01; assay: as above; settings: source organism: Vibrio antiquarius
[37] = target: HLA-B*39:01; assay: as above; settings: source organism: Vibrio antiquarius
[38] = target: HLA-B*15:17; assay: as above; settings: source organism: Vibrio antiquarius
[39] = target: HLA-B*27:03; assay: as above; settings: source organism: Vibrio antiquarius
[40] = target: HLA-A*29:02; assay: as above; settings: source organism: Vibrio antiquarius
[41] = target: HLA-B*46:01; assay: as above; settings: source organism: Vibrio antiquarius
[42] = target: HLA-B*15:01; assay: as above
[43] = target: HLA-A*02:01; assay: as above; settings: source organism: Vibrio antiquarius
[44] = target: HLA-B*18:01; assay: as above; settings: source organism: Vibrio antiquarius
[45] = source organism: Yersinia pestis Nepal516
[46] = source organism: Yersinia pestis
[47] = source organism: Salmonella enterica
[48] = source organism: Escherichia coli
[49] = source organism: Escherichia coli 536
[50] = source organism: West Nile virus
[51] = source organism: Mycobacterium tuberculosis variant bovis
[52] = source organism: Ravn virus - Ravn, Kenya, 1987
[53] = source organism: Marburg virus - Musoke, Kenya, 1980
[54] = source organism: Vibrio antiquarius

AFASLQDML
Kd [1, 45]: ≥ 20 µM | Kd [2, 45]: ≥ 20 µM | Kd [3, 46]: 1.28 µM | Kd [4, 45]: ≥ 20 µM | Kd [5, 46]: ≥ 20 µM | Kd [6, 46]: ≥ 20 µM | Kd [7, 45]: ≥ 20 µM | Kd [8, 45]: ≥ 20 µM | Kd [9, 45]: ≥ 20 µM | Kd [10, 45]: ≥ 20 µM | Kd [11, 45]: ≥ 20 µM | Kd [12, 45]: ≥ 20 µM | Kd [13, 45]: ≥ 20 µM

ALMRWRHPR
Kd [1, 47]: ≥ 20 µM | Kd [2, 47]: ≥ 20 µM | Kd [3, 47]: ≥ 20 µM | Kd [4, 47]: ≥ 20 µM | Kd [5, 48]: 0.00461 µM | Kd [14, 47]: ≥ 20 µM | Kd [15]: 0.00936 µM | Kd [6, 48]: 0.0994 µM | Kd [7, 48]: 0.237 µM | Kd [8, 47]: ≥ 20 µM | Kd [9, 47]: ≥ 20 µM | Kd [10, 47]: ≥ 20 µM | Kd [11, 48]: 9.62 µM | Kd [12, 47]: ≥ 20 µM | Kd [13, 47]: ≥ 20 µM | Kd [16]: 0.00544 µM

FFIQTDAAI
Kd ([17]; source organism: Paramagnetospirillum magnetotacticum MS-1): 0.0017 µM

GLGQVPLIV
IC50 ([18]; source organism: Homo sapiens): 0.5 µM

GLSRYVARLS
IC50 ([18]; source organism: Hepatitis B virus): 0.877 µM

HPASRLFPF
Kd [19]: 0.0534 µM | Kd [20]: ≥ 5 µM | Kd [21, 49]: 0.0002 µM | Kd [22]: ≥ 5 µM | Kd [23]: 0.0434 µM | Kd [24, 49]: ≥ 20 µM

LAALGDTAW
Kd [25, 50]: 6.18 µM | Kd ([21]; source organism: Japanese encephalitis virus): 0.0892 µM

LLDGTATLRL
IC50 ([18]; source organism: Homo sapiens): 0.5 µM

LYQKNIEHF
Kd ([17]; source organism: Vibrio vulnificus YJ016): ≤ 0.0001 µM

MLAPSTLGY
Kd [14, 51]: 0.052 µM | Kd [6, 51]: 0.0345 µM | Kd ([21]; source organism: Mycobacterium tuberculosis F11): ≤ 0.0001 µM

NLFDWMHFL
Kd [1, 52]: ≥ 20 µM | Kd [26]: 0.006 µM | Kd [25, 52]: ≥ 20 µM | Kd [4, 52]: ≥ 20 µM | Kd [5, 52]: ≥ 20 µM | Kd [8, 52]: ≥ 20 µM | Kd [27]: ≥ 20 µM | Kd [28]: 2.42 µM | Kd [9, 52]: ≥ 20 µM | Kd [10, 52]: ≥ 20 µM | Kd [11, 53]: ≤ 0.001 µM | Kd [29]: ≥ 20 µM | Kd [13, 53]: 0.0025 µM | Kd [30, 52]: ≥ 20 µM

PTLDKVLEV
IC50 ([18]; source organism: Homo sapiens): 2 µM

QPAFMVASF
Kd [31]: 0.007 µM | Kd [30, 50]: ≥ 20 µM

RMYSPISIL
IC50 ([18]; source organism: Human immunodeficiency virus 1): 0.056 µM

VILGVLLLI
IC50 ([18]; source organism: Homo sapiens): 0.164 µM

VTGCASLYV
Kd [32]: 0.0368 µM | Kd [33]: ≥ 20 µM | Kd [34]: ≥ 20 µM | Kd [35]: ≥ 20 µM | Kd [17, 54]: ≥ 20 µM | Kd [36]: ≥ 20 µM | Kd [37]: ≥ 20 µM | Kd [38]: ≥ 20 µM | Kd [39]: ≥ 20 µM | Kd [40]: ≥ 20 µM | Kd [41]: ≥ 20 µM | Kd [42, 54]: ≥ 20 µM | Kd [43]: 0.0463 µM | Kd [44]: ≥ 20 µM | Kd [24, 54]: ≥ 20 µM

YSRMLYIEF
Kd [19]: ≥ 5 µM | Kd [20]: ≥ 5 µM | Kd [22]: ≥ 5 µM | Kd [42, 49]: 4.2 µM | Kd [23]: ≥ 20 µM
